Source: the DeepSol protein solubility set

Test: soluble on expression in E. coli; label from the status in PepcDB or PDB records

| Sequence | soluble on expression in E. coli |
| --- | --- |
| MIETEKKEERVLLIGVELQGMDSFDLSMEELASLAKTAGAVVVDSYRQKREKYDSKTFVGSGKLEEIALMVDAEEITTVIVNNRLTPRQNVNLEEVLGVKVIDRMQLILDIFAMRARSHEGKLQVHLAQLKYLLPRLVGQGIMLSRQAGGIGSRGPGESQLELNRRSVRNQITDIERQLKVVEKNRATVREKRLESSTFKIGLIGYTNAGKSTIMNILTSKTQYEADELFATLDATTKSIHLGGNLQVTLTDTVGFIQDLPTELVSSFKSTLEESKHVDLLVHVIDASNPYHEEHEKTVLSIMKDLDMEDIPHLTLYNKADLVEDFTPTQTPYTLISAKSEDSRENLQALLLDKIKEIFEAFTLRVPFSKSYKIHDLESVAILEERDYQEDGEVITGYISEKNKWRLEEFYDLEHHHHHH | not soluble |
| MGSDKIHHHHHHTEDTFWKDETDFNLALTSCYTPLKNALNGGYYGTRGVMLRIARADEVDFRNDISDVYTVNRFTNSNTNSLTQGMFYQFYNALYRTNSIMQKLEEKKEQFSTDFQNSVKGECLFIRGFYLFQLAKEFKDAPLRLTASQSPSTFPLAKSSQADIWAQAKEDLKTAASLLPITNKIGKPTQGAAYAALGKIYVYEENWQEAINVLEPLTQNPYTYKLVEDFNWNFDDTHENNAESIFELLIEDVGGTDLWGDGENINSTQSNTRPKEYAAAEVGGWYEANPTQQIMDIFWKEKDKDGNFDYRARCSVAWDYEGCTYYQRPFREVFAQDKWKTYWILKYQNWKTQKDEPAPPKSFINERAIRYADVLLMLAEAYMNKGALDTSIGYINQIRRRANLNDYSGPITKEGVFEDLVHQRAIEFFVEGERFYDLRRWGLLEQTLKTCDDTRYKNYQTGKSDNINKFNYFPIPAKELDTNPLCTPSEGW | not soluble |
| MKTLVHLSDLHFGKTESHLVDAIAAEVRAVDSDLLVVSGDLTQRARKDEFLQARAFLDSLPGPRIVVPGNHDVPLWNVFARAMTPLSRYRRYIEADTDPFYADSEVAVVGINTARSLTIKNGRINVRQLKAATEKFAYMSDDITRIVVTHHPFEGLDLESDDGIVARADLAMDAFSRSGVDIILSGHQHLHRAGSSARRYLIDGYAALLVQAGTAVSSRVRQAANSFNIIRIEHPRISIECRAWQSLQSGFETSASYSFRQGSGGWEPALEHHHHHH | not soluble |
| MSLSIIVQKYGGTSVGSVQRIEHVANRIIATAASGKKVVVVVSAMGKTTDELVGLASEITDEPRKREMDMLLATGEQVTIALLAMALHKRGQEATSLTGWQAGMITESHHGNARILEVERARMDELLDKVHVVIVAGFQGIDQQGEIMTLGRGGSDTSAVAIAAALKAERCEIYTDVTGVFTTDPRVVKQARKLQTISYDEMLEMANLGASVLHPRAVEFAKNYEIPLLVASSMVDEPGTMIEEEGTMEQNLLVRGIAFENDVTKVTVHGLPNEIHTLPTLFAHLSAAGINVDIIIQNQTDSGMAISFSITQSSLKETLARLEELKGELSFQGIDYEEELAKVSIVGSGMVSNPGVAAKMFEILAANDIAIKMVSTSEIKVSAVIDEELMVLAVEMLHEQFKLHEEEPAVAVKVEGHHHHHH | soluble |
| MAHHHHHHMKSSSKDLCKYFCRKCNNFIYYNEACELIYKKIYPDYYKIYYNKYEFDKKTKGKKEVNPKQYDNLYRQLYNNGLCGVNKQRNDFLNKDNINNILLFLNKGSIQCNKCNHIHMWYMK | soluble |
| MGSDKIHHHHHHMLTSDPSESTAHLQRTISNLSARNAKLAELLKASRDKLSILQDQLEDLAAPPSTYGTFLEFSGGRETAEVFTAGRHMRLRISPDVEKAELVPGVQVRLGEASQVVEVCDISTTGQLATLVELLADNRGLICDHTGEERVVKLAAALTEGVDKLPKAGDTLLVDPRAGYAFEVIPKTEVSTLALEEVPDVTYADIGGLNSQIELIHDAVELPFTQPDLYRAYDLKPPKGVLLYGPPGCGKTLIAKAVANSLAQRIGAGNRSYFINVKGPELLNKYVGETERRIRLIFERARELAEEGRPVIVFFDEMESIFRTRGSGVSSDMETTVVPQLLTELDGVESLSNVIIIGATNREELIDPAILRPGRLDVKIRVERPDKQAARDVFARHLKQNIPTAEPIDSLINNAVDHLYADNPYVELSLIDGSTEILHYRDFVSGAMIANIVDRAKKCAIKDHIAGRHSGVASEHLIAAINAENHESEDLPNTSNPDDWSRIIGRHGLRVAHARVLGGQR | not soluble |
| MLSVMRMQIPKTHPRYESLMKREKIIEALDKGILAKAGLIAHGRGETFDYLIGEKTAPIALEAIKAAAALLILAENPVISVNGNTVALAIDEVVELAKELNGKIEVNLFYRTKERELAIKRAFEEKFKDDIETGKIKILGIDDANKQIPNLDSLRGKVSEEGIFTADVVLVPLEDGDRAEALVNMGKKVIAIDLNPLSRTARKSTITIVDELTRAMPLLIKYVKEFKNKDREELLKIVEDFDNKKNLKDMIDYIAERLKNLSLEHHHHHH | soluble |
| MPTTIEREFEELDTQRRWQPLYLEIRNESHDYPHRVAKFPENRNRNRYRDVSPYDHSRVKLQNAENDYINASLVDIEEAQRSYILTQGPLPNTCCHFWLMVWQQKTKAVVMLNRIVEKESVKCAQYWPTDDQEMLFKETGFSVKLLSEDVKSYYTVHLLQLENINSGETRTISHFHYTTWPDFGVPESPASFLNFLFKVRESGSLNPDHGPAVIHCSAGIGRSGTFSLVDTCLVLMEKGDDINIKQVLLNMRKYRMGLIQTPDQLRFSYMAIIEGAKCIKGDSSIQKRWKELSKEDLSPAFDHSPNKIMTEKYN | soluble |
| GPGSMRGIARPTVATVGLSQQVVAFDEWVWALNELGGRESFRKNWRYYALRIDTVHFLMFVLDVLNGQALDEARQYLKEVTSHYHEVPLLVVFNNFREGHRRFDISEFEALIHLDKLRRRHGADVLSCVCDISVVHSKNRQLPRTLSSTLRTLSSLLKARSKSENGGDGGAPPVPKATTSFSASVVGGAAGDAAAGDGVVHS | not soluble |
| ADLGTENLYFQSMKPSPEEAQLWSEAFDELLASKYGLAAFRAFLKSEFCEENIEFWLACEDFKKTKSPQKLSSKARKIYTDFIEKEAPKEINIDFQTKTLIAQNIQEATSGCFTTAQKRVYSLMENNSYPRFLESEFYQDLCKKPQ | soluble |
| MTTKNTLQPTEAAYIAGFLDGDGSIYAKLIPRPDYKDIKYQVSLAISFIQRKDKFPYLQDIYDQLGKRGNLRKDRGDGIADYTIIGSTHLSIILPDLVPYLRIKKKQANRILHIINLYPQAQKNPSKFLDLVKIVDDVQNLNKRADELKSTNYDRLLEEFLKAGKIESSP | soluble |
| MGSDKIHHHHHHMSAELNQPVPRPGILDIAAYVPGKEHVDGVAKVYKLSSNETPLGPSPKAIEAFSAAASHLEIYPDGQAIALRQAIADVHGLNIANILCGNGSDELLGLLCHVYLGAGDEAIITEHGFLVYKIQIMGAGATPVTVKEKDCVVDVDAILAAVTPKTKMVFLANPGNPTGTYVPVAEIRRLQAGLPKHVVLVLDAAYAEYVRKNDYEAGLELVSGNRNVVMTRTFSKVYGLAALRVGWMYAPVDIIDALNRVRGPFNMSAPAIAAGAAAIRDQAFVQKAVAHNALWMEKLVTTFTGLGLTVTPSVANFILIHFPDQDGKRATDADEFLSRRGYILRAVRGYGFPNALRMTVGSEEANLGVIAALTEFMGQA | not soluble |
| TCPAACHCPLEAPKCAPGVGLVRDGCGCCKVCAKQLNEDCSKTQPCDHTKGLECNFGASSTALKGICRAQSEGRPCEYNSRIYQNGESFQPNCKHQCTCIDGAVGCIPLCPQELSLPNLGCPNPRLVKVTGQCCEEWVCDEDSIKDPMEDQDGLLGKELGFDASEVELTRNNELIAVGKGSSLKRLPVFGMEPRILYNPLQGQKCIVQTTSWSQCSKTCGTGISTRVTNDNPECRLVKETRICEVRPCGQPVYSSLKKGKKCSKTKKSPEPVRFTYAGCLSVKKYRPKYCGSCVDGRCCTPQLTRTVKMRFRCEDGETFSKNVMMIQSCKCNYNCPHANEAAFPFYRLFNDIHKFRD | soluble |
